From paper PMC5879678 (Proceedings of the National Academy of Sciences of the …, 2018)

Columns and labels:
[1] = biological target: the molecule itself; experiment: Thioflavin T fluorescence
AUC = biological target: the molecule itself; experiment: AUC

| Protein | binding result [1] | stoichiometry N (AUC) |
| --- | --- | --- |
| TasA239 (TasA core domain, amino acids 28-239) (domain or fragment, Bacillus subtilis, UniProt P54507 28-239, looked up, 2H,15N,13C isotope labelling in the NMR samples) AFNDIKSKDATFASGTLDLSAKENSASVNLSNLKPGDKLTKDFQFENNGSLAIKEVLMALNYGDFKANGGSNTSPEDFLSQFEVTLLTVGKEGGNGYPKNIILDDANLKDLYLMSAKNDAAAAEKIKKQIDPKFLNASGKVNVATIDGKTAPEYDGVPKTPTDFDQVQMEIQFKDDKTKDEKGLMVQNKYQGNSIKLQFSFEATQWNGLTIK | binds | – |
| TasA261 (mature secreted TasA, amino acids 28-261) (natural protein, Bacillus subtilis, UniProt P54507 28-261, looked up, 2H,13C,15N isotope labelling in the NMR samples) AFNDIKSKDATFASGTLDLSAKENSASVNLSNLKPGDKLTKDFQFENNGSLAIKEVLMALNYGDFKANGGSNTSPEDFLSQFEVTLLTVGKEGGNGYPKNIILDDANLKDLYLMSAKNDAAAAEKIKKQIDPKFLNASGKVNVATIDGKTAPEYDGVPKTPTDFDQVQMEIQFKDDKTKDEKGLMVQNKYQGNSIKLQFSFEATQWNGLTIKKDHTDKDGYVKENEKAHSEDKN | – | 12 |
